The record followed here is patent publication US20240053360A1 (EQUILLIUM, published 2024).

In this test the target is T1, cell surface CD6 on human T cells (CD4 and CD8 T cells of PBMCs / whole blood) (human, UniProt P30203 18-668).
T1 construct: whole, on cells
T1 sequence (looked up): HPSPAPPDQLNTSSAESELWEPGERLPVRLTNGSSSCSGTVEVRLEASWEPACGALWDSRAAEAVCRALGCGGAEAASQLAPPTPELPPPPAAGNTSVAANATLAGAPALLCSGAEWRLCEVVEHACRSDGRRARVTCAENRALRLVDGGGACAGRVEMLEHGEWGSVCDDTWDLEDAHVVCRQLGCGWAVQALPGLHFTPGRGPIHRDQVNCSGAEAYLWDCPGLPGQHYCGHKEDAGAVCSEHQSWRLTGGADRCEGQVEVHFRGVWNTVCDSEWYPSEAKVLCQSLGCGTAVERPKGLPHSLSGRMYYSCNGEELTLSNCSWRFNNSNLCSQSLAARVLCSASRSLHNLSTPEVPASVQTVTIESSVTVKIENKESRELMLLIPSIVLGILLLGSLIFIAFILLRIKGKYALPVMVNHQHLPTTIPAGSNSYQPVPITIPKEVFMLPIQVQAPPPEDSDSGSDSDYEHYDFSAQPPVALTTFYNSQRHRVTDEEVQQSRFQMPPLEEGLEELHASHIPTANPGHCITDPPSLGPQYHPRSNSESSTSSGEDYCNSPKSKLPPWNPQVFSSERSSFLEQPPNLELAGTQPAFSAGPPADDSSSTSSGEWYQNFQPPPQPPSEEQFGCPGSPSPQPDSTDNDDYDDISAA
The experiment in a line: flow cytometry, receptor occupancy on CD4 and CD8 T cells.

B1: itolizumab (antibody, human IgG1, kappa, V domains shown)
VH: EVQLVESGGGLVKPGGSLKLSCAASGFKFSRYAMSWVRQAPGKRLEWVATISSGGSYIYYPDSVKGRFTISRDNVKNTLYLQMSSLRSEDTAMYYCARRDYDLDYFDSWGQGTLVTVSS
VL: DIQMTQSPSSLSASVGDRVTITCKASRDIRSYLTWYQQKPGKAPKTLIYYATSLADGVPSRFSGSGSGQDYSLTISSLESDDTATYYCLQHGESPFTLGSGTKLEIKR
notes: Humanized anti-CD6 monoclonal antibody; also called EQ001; ALZUMAB
B1: the binding result is “binds”.
